Numbering of substitutions follows the chain as printed.
T1: P991_AMBCA (Amblyomma cajennense, UniProt A0A023FFD0 29-136)
T1 sequence: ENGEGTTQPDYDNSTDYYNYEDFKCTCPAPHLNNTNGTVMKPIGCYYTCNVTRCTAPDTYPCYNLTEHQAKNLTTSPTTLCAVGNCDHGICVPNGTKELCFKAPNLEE

T2: P1182_AMBMA (Amblyomma maculatum, UniProt G3MJ83 27-115)
T2 sequence: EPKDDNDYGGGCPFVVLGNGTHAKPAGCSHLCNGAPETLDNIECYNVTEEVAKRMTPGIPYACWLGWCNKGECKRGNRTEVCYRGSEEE

T3: P1243_AMBAM (Amblyomma americanum, UniProt A0A0C9S461 26-123)
T3 sequence: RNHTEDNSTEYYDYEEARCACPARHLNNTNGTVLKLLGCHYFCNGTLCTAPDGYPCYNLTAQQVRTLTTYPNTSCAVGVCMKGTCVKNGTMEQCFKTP

T4: P974_AMBCA (Amblyomma cajennense, UniProt A0A023FDY8 22-118)
T4 sequence: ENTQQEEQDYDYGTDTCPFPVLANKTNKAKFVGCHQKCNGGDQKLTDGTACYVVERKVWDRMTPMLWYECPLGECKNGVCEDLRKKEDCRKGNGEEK

T5: P467_RHIPU (Rhipicephalus pulchellus, UniProt L7M8Z8 22-127)
T5 sequence: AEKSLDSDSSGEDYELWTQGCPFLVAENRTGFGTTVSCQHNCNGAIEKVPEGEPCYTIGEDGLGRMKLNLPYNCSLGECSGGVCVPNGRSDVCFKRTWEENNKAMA

T6: P1181_AMBMA (Amblyomma maculatum, UniProt G3MIX6 26-115)
T6 sequence: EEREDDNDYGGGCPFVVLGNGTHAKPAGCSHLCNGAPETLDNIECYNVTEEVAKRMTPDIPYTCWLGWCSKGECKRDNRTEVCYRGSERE

T7: P546_AMBCA (Amblyomma cajennense, UniProt A0A023FBW7 22-118)
T7 sequence: T4 sequence with Q8E, E69S, D88E

T8: P1180_AMBTR (Amblyomma triste, UniProt A0A023G6B6 26-116)
T8 sequence: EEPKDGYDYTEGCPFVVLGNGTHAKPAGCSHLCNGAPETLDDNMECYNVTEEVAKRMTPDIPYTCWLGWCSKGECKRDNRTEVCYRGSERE

T9: P985_AMBPA (Amblyomma parvum, UniProt A0A023FT45 25-132)
T9 sequence: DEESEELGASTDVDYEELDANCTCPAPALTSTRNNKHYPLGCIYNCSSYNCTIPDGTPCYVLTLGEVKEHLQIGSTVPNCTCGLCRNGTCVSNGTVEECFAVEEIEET

T10: CXCL4_HUMAN (human, UniProt P02776 32-101)
T10 sequence: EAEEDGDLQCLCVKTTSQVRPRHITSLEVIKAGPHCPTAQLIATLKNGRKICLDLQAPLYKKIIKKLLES

T11: CXCL8_HUMAN (human, UniProt P10145 28-99)
T11 sequence: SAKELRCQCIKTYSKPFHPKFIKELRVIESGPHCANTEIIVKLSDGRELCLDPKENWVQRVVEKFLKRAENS

T12: CXCL7_HUMAN (human, UniProt P02775 59-128)
T12 sequence: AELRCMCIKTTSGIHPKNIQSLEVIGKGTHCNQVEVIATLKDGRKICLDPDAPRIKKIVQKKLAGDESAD

T13: CXCL1_HUMAN (human, UniProt P09341 35-107)
T13 sequence: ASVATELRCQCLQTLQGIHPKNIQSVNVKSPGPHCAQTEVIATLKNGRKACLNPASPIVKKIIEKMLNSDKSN

T14: CXCL13_HUMAN (human, UniProt O43927 23-109)
T14 sequence: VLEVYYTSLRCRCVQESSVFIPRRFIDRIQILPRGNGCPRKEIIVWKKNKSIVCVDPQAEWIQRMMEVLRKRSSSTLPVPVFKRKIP

T15: CXCL11_HUMAN (human, UniProt O14625 22-94)
T15 sequence: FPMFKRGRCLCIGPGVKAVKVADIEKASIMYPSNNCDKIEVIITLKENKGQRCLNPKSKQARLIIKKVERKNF

T16: CXCL9_HUMAN (human, UniProt Q07325 23-125)
T16 sequence: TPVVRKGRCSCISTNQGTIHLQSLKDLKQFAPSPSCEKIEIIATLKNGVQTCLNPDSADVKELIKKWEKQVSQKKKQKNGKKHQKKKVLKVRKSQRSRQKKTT

T17: CXCL10_HUMAN (human, UniProt P02778 22-98)
T17 sequence: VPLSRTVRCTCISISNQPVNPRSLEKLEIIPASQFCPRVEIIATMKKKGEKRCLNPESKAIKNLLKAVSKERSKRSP

T18: CXCL14_HUMAN (human, UniProt O95715 35-111)
T18 sequence: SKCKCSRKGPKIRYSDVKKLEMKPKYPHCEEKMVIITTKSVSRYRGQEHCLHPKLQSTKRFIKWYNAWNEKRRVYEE

B1: CCL19_HUMAN (ligand)
chain: GTNDAEDCCLSVTQKPIPGYIVRNFHYLLIKDGCRVPAVVFTTLRGRQLCAPPDQPWVERIIQRLQRTSAKMKRRSS
B2: CCL5_HUMAN (ligand)
chain: SPYSSDTTPCCFAYIARPLPRAHIKEYFYTSGKCSNPAVVFVTRKNRQVCANPEKKWVREYINSLEMS
B3: CCL18_HUMAN (ligand)
chain: AQVGTNKELCCLVYTSWQIPQKFIVDYSETSPQCPKPGVILLTKRGRQICADPNKKWVQKYISDLKLNA
B4: CCL17_HUMAN (ligand)
chain: ARGTNVGRECCLEYFKGAIPLRKLKTWYQTSEDCSRDAIVFVTVQGRAICSDPNNKRVKNAVKYLQSLERS
B5: CCL27_HUMAN (ligand)
chain: FLLPPSTACCTQLYRKPLSDKLLRKVIQVELQEADGDCHLQAFVLHLAQRSICIHPQNPSLSQWFEHQERKLHGTLPKLNFGMLRKMG
B6: CCL1_HUMAN (ligand)
chain: KSMQVPFSRCCFSFAEQEIPLRAILCYRNTSSICSNEGLIFKLKRGKEACALDTVGWVQRHRKMLRHCPSKRK
B7: P1100_IXORI (other)
chain: GSKGSSASQSSDNSVVAKFCDTNCTINEGGKWTECKGGCFCVHVGNETVGRCMKLDGDYDYPSPKPEE
B8: P1124_IXORI (other)
chain: DSKGTSDSQDSTKSIKVDFCETNCTKTDGGWTGCTGDCICVSVGDSIEGRCMDFG
B9: P458_IXORI (other)
chain: GSKQPGAAGSSSDSVEAVFCPTNCTKGTNGAWSGCSDDCICVHVGENTEGSCMKFSGDYDYPTPEA
B10: P1132_IXORI (other)
chain: LSDEDELFSVEYCGTNCTKQDTGSWTTCSGNCTCYHEDGKKVGLCLSTEYTDFTKFPKPTSEEIANARPLPKREKTLN
B11: P1166_IXORI (other)
chain: GPETKEDKKSDVYELFTVEYCGTNCTLLTNGRWTACTGKKGTCRCYHESGEKVGLCLSTEYTDFSEYPNPKSSEIDAAAPLPRETH
B12: P1096_IXORI (other)
chain: HTTVTGSVEGKPNNPNEDIEVSYCRMNCTVENGVSSACSGDCVCVHRDNEPNGICVEITYFGDFGDPSQDPSIDEAAPRESVSKRRSNGES
B13: P1134_IXORI (other)
chain: NEEVFTVEYCGMNCTQKSDGTWTECSGKNKDCRCYHESDAREGLCLSTEYTDFSQFETPSNSDLEAATPRPRKTLYPVRNPHGPKTRGLGYDKRILRDRVKFLI
B14: P1095_IXORI (other)
chain: HSPVAGSEVQKLTSDPNDDIDVSYCGMNCTVVNGKSDECSENCKCLHEGDDPKGICVAITYFGDWGDPNDDPKINEATPQTQIFEKKRK
B15: CCL22_HUMAN (ligand)
chain: GPYGANMEDSVCCRDYVRYRLPLRVVKHFYWTSDSCPRPGVVLLTFRDKEICADPRVPWVKMILNKLSQ
B16: CCL24_HUMAN (ligand)
chain: VVIPSPCCMFFVSKRIPENRVVSYQLSSRSTCLKAGVIFTTKKGQQFCGDPKQEWVQRYMKNLDAKQKKASPRARAVA

molecular target: T1, P991_AMBCA; assay: BLI

Binder	Kd [nM]
B1	14.4
B2	1.47
B3	0.209
B4	7.66

molecular target: T2, P1182_AMBMA; assay: BLI

Binder	Kd [nM]
B3	33

molecular target: T3, P1243_AMBAM; assay: BLI

Binder	Kd [nM]
B1	0.592
B5	15.1
B2	1.74
B6	21.3
B3	0.00501
B4	0.734

molecular target: T4, P974_AMBCA; assay: BLI

Binder	Kd [nM]
B6	70.5
B3	17
B4	70.6

molecular target: T5, P467_RHIPU; assay: BLI

Binder	Kd [nM]
B2	7.67
B6	53.4
B3	16.6

molecular target: T6, P1181_AMBMA; assay: BLI

Binder	Kd [nM]
B3	10

molecular target: T7, P546_AMBCA; assay: BLI

Binder	Kd [nM]
B6	160
B3	16
B4	70

molecular target: T8, P1180_AMBTR; assay: BLI

Binder	Kd [nM]
B3	5.8

molecular target: T9, P985_AMBPA; assay: BLI

Binder	Kd [nM]
B2	3.5
B6	8.3
B3	430

molecular target: T10, CXCL4_HUMAN; assay: BLI [Cont.]

Binder	binding result
B7	no binding (tested: 300 nM)
B8	no binding (tested: 300 nM)
B9	no binding (tested: 300 nM)

molecular target: T11, CXCL8_HUMAN; assay: BLI [Cont.]

Binder	binding result
B7	no binding (tested: 300 nM)
B8	no binding (tested: 300 nM)
B9	no binding (tested: 300 nM)

molecular target: T12, CXCL7_HUMAN; assay: BLI [Cont.]

Binder	binding result
B7	no binding (tested: 300 nM)
B8	no binding (tested: 300 nM)
B9	no binding (tested: 300 nM)

molecular target: T13, CXCL1_HUMAN; assay: yeast surface display FACS re-test; note: test concentration or dose not given here

Binder	% cells over threshold fluorescence [%]
B10	68
B11	63

molecular target: T14, CXCL13_HUMAN; assay: BLI

Binder	binding result
B10	no binding (tested: 300 nM)
B11	no binding (tested: 300 nM)

molecular target: T15, CXCL11_HUMAN; assay: BLI

Binder	binding result
B8	no binding (tested: 300 nM)
B9	no binding (tested: 300 nM)

molecular target: CXCL12_HUMAN (human, UniProt P48061 22-89); assay: BLI
Sequence (P48061 22-89 limits assumed): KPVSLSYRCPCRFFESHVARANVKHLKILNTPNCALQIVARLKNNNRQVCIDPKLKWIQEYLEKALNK

Binder	binding result	Kd [nM]
B7	no binding (tested: 300 nM)	–
B10	no binding (tested: 300 nM)	–
B11	no binding (tested: 300 nM)	–
B12	no binding (tested: 300 nM)	–
B13	no binding (tested: 300 nM)	–
B8	–	212
B9	no binding (tested: 300 nM)	–

molecular target: T16, CXCL9_HUMAN; assay: BLI

Binder	binding result
B10	no binding (tested: 300 nM)
B11	no binding (tested: 300 nM)
B12	no binding (tested: 300 nM)
B14	no binding (tested: 300 nM)

molecular target: T17, CXCL10_HUMAN; assay: BLI

Binder	binding result
B8	no binding (tested: 300 nM)
B9	no binding (tested: 300 nM)

molecular target: T18, CXCL14_HUMAN; assay: BLI

Binder	binding result
B7	no binding (tested: 300 nM)
B8	no binding (tested: 300 nM)
B9	no binding (tested: 300 nM)

molecular target: T3, P1243_AMBAM; assay: BLI; remark: another data set of the same source

Binder	Kd [nM]
B1	0.592
B5	15.1
B2	1.74
B6	21.2
B3	0.005
B15	22.3
B4	0.734
B16	7.39

From patent US20240034757A1 (OXFORD UNIVERSITY INNOVATION, published 2024)
